The values that follow come from patent US10202593B2, “Evolved sortases and uses thereof” (President and Fellows of Harvard College, priority 2013, dated 2019).

The subject of assay [1] is GGG-functionalized amphiphilic diblock polypeptide. Nature of the assay: GGG-diblock functionalization. Type of assay: biochemical. To be noted: Alexa Fluor 488-LAETG or 647-LPESG, 1 hour. The method, then: Amphiphilic diblock polypeptide (Diblock) was co-incubated with Alexa Fluor® 488-LAETG (SEQ ID NO: 5), Alexa Fluor® 647-LPESG (SEQ ID NO: 3), eSrtA(2A-9), and/or eSrtA(4S-9). The reactions were analyzed by denaturing gel electrophoresis and visualized using either Coomassie stain (top), 488 fluorescence (bottom, blue), or 647 fluorescence (bottom, red). Magenta denotes the overlap of blue and red fluorescence signals.
GGG-functionalized recombinant amphiphilic diblock polypeptide (Diblock), GGG-Diblock, was used as a substrate to test the orthogonality of the two evolved sortases in solution. GGG-Diblock based on elastin-mimetic polypeptide sequences was prepared as previously described (Kim et al. Self-Assembly of Thermally Responsive Amphiphilic Diblock Copolypeptides into Spherical Micellar Nanoparticles. Angewandte Chemie International Edition 49, 4257-4260, doi:10.1002/anie.201001356 (2010)) with slight changes in sequence by genetically incorporating an N-terminal triglycine motif. A complete amine acid sequence is GGG-VPGEG-[(VPGVG)(VPGEG)(VPGVG)(VPGEG)(VPGVG)]10-CCCCGG-[(IPGVG)2VPGYG(IPGVG)2]15-VPGYG (SEQ ID NO: 75). In a 0.6 mL Eppendorf tube, GGG-functionalized Diblock (10 μM) was mixed with fluorophore-peptide (0.1 μM), evolved sortase (15 μM) and CaCl2 (100 mM), then reacted for 1 hour at room temperature. […]

Assay [2] relates to SUMO-TEV site-FGF1-LPESG-His6. Kind of assay: FGF dual labeling / circularization of GGG-FGF-LPESG. In kind it is biochemical. To be noted: 0.2 eq enzyme, 10 or 100 μM Btn-LAETG, 4 hours. The method, then:
SUMO-TEV site-FGF1-LPESG-His6 (SEQ ID NO: 27), 0.5 eq TEV protease, and either 0.2 eq eSrtA or eSrtA(2A-9) were incubated in the presence of 10 or 100 μM Btn-LAETG (SEQ ID NO: 5) for 4 hours. The protein contains a GGG near its N-terminus masked by a TEV protease cleavage site, and a LPESG (SEQ ID NO: 3) near its C-terminus to serve as a substrate for downstream conjugation. In situ digestion of the TEV cleavage site exposes an N-terminal GGG, which in theory can serve as the substrate for subsequent conjugation with an LAETG-containing peptide (SEQ ID NO: 5). […] His6: SEQ ID NO: 6.
SUMO-TEV-FGF-LPESG-His6 (SEQ ID NO: 27) conjugates were treated with 0.2 eq eSrtA(4S-9), 1 mM GGG-PEG and 10 mM CaCl2 in TBS and incubated at room temperature at 500 μL final volumes. These samples were then quenched by the addition of 100 μM H2N-LPESGG (SEQ ID NO: 38) peptide and 100 μL of pre-equilibrated Ni-NTA resin slurry in TBS, then incubated on ice for 15 minutes. This mixture was then passed through a 0.2 μm spin filter, diluted 1:10 into PBS+10 μM H2N-LPESGG (SEQ ID NO: 38) peptide, and concentrated against a 10 kDa MWCO spin concentrator to a final volume of 400 μL. This process was repeated five times to afford the crude SUMO-TEV-FGF-LPESGGG-PEG (SEQ ID NO: 39) conjugates. […] Protein concentrations were determined by BCA assay. […]

GGG-functionalized amphiphilic diblock polypeptide, sequence (as listed by the source): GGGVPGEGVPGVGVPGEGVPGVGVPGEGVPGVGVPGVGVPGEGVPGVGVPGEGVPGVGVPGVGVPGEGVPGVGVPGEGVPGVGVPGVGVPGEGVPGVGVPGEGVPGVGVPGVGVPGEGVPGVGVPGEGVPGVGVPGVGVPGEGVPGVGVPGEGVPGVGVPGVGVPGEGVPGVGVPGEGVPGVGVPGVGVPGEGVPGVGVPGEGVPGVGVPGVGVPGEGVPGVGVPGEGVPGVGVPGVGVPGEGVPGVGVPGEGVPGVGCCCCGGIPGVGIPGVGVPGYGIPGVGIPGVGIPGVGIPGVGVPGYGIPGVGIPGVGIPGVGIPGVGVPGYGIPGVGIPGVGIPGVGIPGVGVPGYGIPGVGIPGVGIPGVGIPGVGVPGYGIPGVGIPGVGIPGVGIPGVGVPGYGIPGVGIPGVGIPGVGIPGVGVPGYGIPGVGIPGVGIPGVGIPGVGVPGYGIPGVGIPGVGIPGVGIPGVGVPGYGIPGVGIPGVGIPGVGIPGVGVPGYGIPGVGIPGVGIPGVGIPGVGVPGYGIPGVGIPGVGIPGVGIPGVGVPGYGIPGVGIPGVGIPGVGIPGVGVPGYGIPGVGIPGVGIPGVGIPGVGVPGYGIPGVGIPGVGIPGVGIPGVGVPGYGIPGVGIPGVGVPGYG

B1: eSrtA(2A-9): P94R, S102C, A104H, E105D, K138P, K152I, N160K, K162H, T164N, D165A, K173E, I182V, K190E, T196S (protein)
chain: QAKPQIPKDKSKVAGYIEIPDADIKEPVYPGPATREQLNRGVCFHDENESLDDQNISIAGHTFIDRPNYQFTNLKAAKPGSMVYFKVGNETRIYKMTSIRKVHPNAVEVLDEQEGKDKQLTLVTCDDYNEETGVWESRKIFVATEVK
For B1, in assay [1], the peptide-diblock conjugation entry was “no detectable off-target substrate conjugation”. Further, in assay [2], the “circularization of GGG-FGF-LPESG” value is given as “does not generate detectable levels of circularized GGG-FGF protein”.

B2: eSrtA (protein)
chain: QAKPQIPKDKSKVAGYIEIPDADIKEPVYPGPATREQLNRGVSFAEENESLDDQNISIAGHTFIDRPNYQFTNLKAAKKGSMVYFKVGNETRKYKMTSIRNVKPTAVEVLDEQKGKDKQLTLITCDDYNEETGVWETRKIFVATEVK
Consider B2, for which the “circularization of GGG-FGF-LPESG” value in assay [2] was “resulting in circularization”.

B3: eSrtA(4S-9): P94R, N98D, S102C, A104V, A118T, F122A, K134R, F144L, D160N, D165A, I182V, E189F, K190E, K196T (protein)
chain: QAKPQIPKDKSKVAGYIEIPDADIKEPVYPGPATREQLDRGVCFVEENESLDDQNISITGHTAIDRPNYQFTNLRAAKKGSMVYLKVGNETRKYKMTSIRNVKPTAVEVLDEQKGKDKQLTLVTCDDYNFETGVWETRKIFVATEVK
B3: the peptide-diblock conjugation entry in assay [1] was “no detectable off-target substrate conjugation”.
